In publication PMC6957483, “Anosmin-1 activates vascular endothelial growth factor receptor and its related signaling pathway for olfactory bulb angiogenesis” (Scientific Reports, 2020):

Target: T1, Recombinant human VEGFR2-Fc (human, UniProt P35968 20-764)
T1 construct: VEGF receptor-2 (VEGFR2, KDR), human; Probably the extracellular domain fused to an IgG Fc; In the functional rows this id stands for the whole VEGFR2 on HUVECs or PAE/KDR cells; also called VEGF receptor-2; KDR; source: bought: BioLegend
Test: SPR; BIAcore, 20 °C; VEGFR2-Fc (50 µg/mL in 10 mM sodium acetate, pH 4.5) coupled to an EDC/NHS-activated CM5 chip; anosmin-1, its mutant or VEGF-A injected in PBS with 0.35 M NaCl at 30 µL/min; affinity calculated from the on- and off-rates
Conditions: both partners purified

T1 sequence (P35968 20-764): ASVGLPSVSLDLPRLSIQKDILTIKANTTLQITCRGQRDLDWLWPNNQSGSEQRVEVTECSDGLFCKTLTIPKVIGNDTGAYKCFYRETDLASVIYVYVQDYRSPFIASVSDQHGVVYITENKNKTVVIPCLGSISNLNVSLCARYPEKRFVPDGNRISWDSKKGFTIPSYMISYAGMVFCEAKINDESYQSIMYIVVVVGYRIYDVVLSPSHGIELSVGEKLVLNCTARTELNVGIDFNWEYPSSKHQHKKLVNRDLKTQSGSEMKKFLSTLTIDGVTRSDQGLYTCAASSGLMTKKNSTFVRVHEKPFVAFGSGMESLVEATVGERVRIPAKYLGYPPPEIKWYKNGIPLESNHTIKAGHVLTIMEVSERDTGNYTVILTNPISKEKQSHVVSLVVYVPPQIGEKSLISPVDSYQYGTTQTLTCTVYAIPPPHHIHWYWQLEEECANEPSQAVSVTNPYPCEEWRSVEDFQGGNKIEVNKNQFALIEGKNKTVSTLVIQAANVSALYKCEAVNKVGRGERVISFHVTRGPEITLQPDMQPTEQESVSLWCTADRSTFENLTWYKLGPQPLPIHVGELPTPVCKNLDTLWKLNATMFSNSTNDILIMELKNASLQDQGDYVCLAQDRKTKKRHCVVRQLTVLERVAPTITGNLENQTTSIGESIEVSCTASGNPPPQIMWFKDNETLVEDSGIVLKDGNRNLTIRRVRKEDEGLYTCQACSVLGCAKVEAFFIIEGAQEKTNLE

B1: Recombinant human anosmin-1 Δ2–4 deletion mutant (domain or fragment)
chain: AGPGAAAARRLDESLSAGSVQRARCASRCLSLQITRISAFFQHFQNNGSLVWCQNHKQCSKCLEPCKESGDLRKHQCQSFCEPLFPKKSYECLTSCEFLKYILLVKQGDCPAPEKASGFAAACVESCEVDNECSGVKKCCSNGCGHTCQVPKTLYKGVPLKPRKELRFTELQSGQLEVKWSSKFNISIEPVIYVVQRRWNYGIHPSEDDATHWQTVAQTTDERVQLTDIRPSRWYQFRVAAVNVHGTRGFTAPSKHFRSSKDP
modifications: secreted from 293T cells (pSecTag2; vector signal and His tag left out), likely N-glycosylated; cysteine box + WAP + first FnIII kept, FnIII 2-4 and His-rich region deleted; C-terminal limit taken …
Kd: 1400 nM | koff: 0.046 s⁻¹ | kon: 34000 M⁻¹ s⁻¹

B2: Recombinant human anosmin-1 wild-type (natural protein, UniProt P23352 25-680, looked up)
chain: AGPGAAAARRLDESLSAGSVQRARCASRCLSLQITRISAFFQHFQNNGSLVWCQNHKQCSKCLEPCKESGDLRKHQCQSFCEPLFPKKSYECLTSCEFLKYILLVKQGDCPAPEKASGFAAACVESCEVDNECSGVKKCCSNGCGHTCQVPKTLYKGVPLKPRKELRFTELQSGQLEVKWSSKFNISIEPVIYVVQRRWNYGIHPSEDDATHWQTVAQTTDERVQLTDIRPSRWYQFRVAAVNVHGTRGFTAPSKHFRSSKDPSAPPAPANLRLANSTVNSDGSVTVTIVWDLPEEPDIPVHHYKVFWSWMVSSKSLVPTKKKRRKTTDGFQNSVILEKLQPDCDYVVELQAITYWGQTRLKSAKVSLHFTSTHATNNKEQLVKTRKGGIQTQLPFQRRRPTRPLEVGAPFYQDGQLQVKVYWKKTEDPTVNRYHVRWFPEACAHNRTTGSEASSGMTHENYIILQDLSFSCKYKVTVQPIRPKSHSKAEAVFFTTPPCSALKGKSHKPVGCLGEAGHVLSKVLAKPENLSASFIVQDVNITGHFSWKMAKANLYQPMTGFQVTWAEVTTESRQNSLPNSIISQSQILPSDHYVLTVPNLRPSTLYRLEVQVLTPGGEGPATIKTFRTPELPPSSAHRSHLKHRHPHHYKPSPERY
notes: anosmin-1, human, product of the ANOS1 gene; also called anosmin-1 WT; WT; source: 293 T cells (pSecTag2 vector), conditioned media, purified (HisTrap HP column, PD-10 column)
Kd: 32 nM | koff: 0.0011 s⁻¹ | kon: 35000 M⁻¹ s⁻¹
